Results published in IntAct's records for PubMed 21390248.

B1: 14-3-3 protein gamma (Mus musculus), P61982 (parent)
chain: MVDREQLVQKARLAEQAERYDDMAAAMKNVTELNEPLSNEERNLLSVAYKNVVGARRSSWRVISSIEQKTSADGNEKKIEMVRAYREKIEKELEAVCQDVLSLLDNYLIKNCSETQYESKVFYLKMKGDYYRYLAEVATGEKRATVVESSEKAYSEAHEISKEHMQPTHPIRLGLALNYSVFYYEIQNAPEQACHLAKTAFDDAIAELDTLNEDSYKDSTLIMQLLRDNLTLWTSDQQDDDGGEGNN

Variants of: B1
Conditions: with lrrk2_mouse Lrrk2, Q5S006
lrrk2_mouse Lrrk2, Q5S006, sequence (Q5S006 whole entry): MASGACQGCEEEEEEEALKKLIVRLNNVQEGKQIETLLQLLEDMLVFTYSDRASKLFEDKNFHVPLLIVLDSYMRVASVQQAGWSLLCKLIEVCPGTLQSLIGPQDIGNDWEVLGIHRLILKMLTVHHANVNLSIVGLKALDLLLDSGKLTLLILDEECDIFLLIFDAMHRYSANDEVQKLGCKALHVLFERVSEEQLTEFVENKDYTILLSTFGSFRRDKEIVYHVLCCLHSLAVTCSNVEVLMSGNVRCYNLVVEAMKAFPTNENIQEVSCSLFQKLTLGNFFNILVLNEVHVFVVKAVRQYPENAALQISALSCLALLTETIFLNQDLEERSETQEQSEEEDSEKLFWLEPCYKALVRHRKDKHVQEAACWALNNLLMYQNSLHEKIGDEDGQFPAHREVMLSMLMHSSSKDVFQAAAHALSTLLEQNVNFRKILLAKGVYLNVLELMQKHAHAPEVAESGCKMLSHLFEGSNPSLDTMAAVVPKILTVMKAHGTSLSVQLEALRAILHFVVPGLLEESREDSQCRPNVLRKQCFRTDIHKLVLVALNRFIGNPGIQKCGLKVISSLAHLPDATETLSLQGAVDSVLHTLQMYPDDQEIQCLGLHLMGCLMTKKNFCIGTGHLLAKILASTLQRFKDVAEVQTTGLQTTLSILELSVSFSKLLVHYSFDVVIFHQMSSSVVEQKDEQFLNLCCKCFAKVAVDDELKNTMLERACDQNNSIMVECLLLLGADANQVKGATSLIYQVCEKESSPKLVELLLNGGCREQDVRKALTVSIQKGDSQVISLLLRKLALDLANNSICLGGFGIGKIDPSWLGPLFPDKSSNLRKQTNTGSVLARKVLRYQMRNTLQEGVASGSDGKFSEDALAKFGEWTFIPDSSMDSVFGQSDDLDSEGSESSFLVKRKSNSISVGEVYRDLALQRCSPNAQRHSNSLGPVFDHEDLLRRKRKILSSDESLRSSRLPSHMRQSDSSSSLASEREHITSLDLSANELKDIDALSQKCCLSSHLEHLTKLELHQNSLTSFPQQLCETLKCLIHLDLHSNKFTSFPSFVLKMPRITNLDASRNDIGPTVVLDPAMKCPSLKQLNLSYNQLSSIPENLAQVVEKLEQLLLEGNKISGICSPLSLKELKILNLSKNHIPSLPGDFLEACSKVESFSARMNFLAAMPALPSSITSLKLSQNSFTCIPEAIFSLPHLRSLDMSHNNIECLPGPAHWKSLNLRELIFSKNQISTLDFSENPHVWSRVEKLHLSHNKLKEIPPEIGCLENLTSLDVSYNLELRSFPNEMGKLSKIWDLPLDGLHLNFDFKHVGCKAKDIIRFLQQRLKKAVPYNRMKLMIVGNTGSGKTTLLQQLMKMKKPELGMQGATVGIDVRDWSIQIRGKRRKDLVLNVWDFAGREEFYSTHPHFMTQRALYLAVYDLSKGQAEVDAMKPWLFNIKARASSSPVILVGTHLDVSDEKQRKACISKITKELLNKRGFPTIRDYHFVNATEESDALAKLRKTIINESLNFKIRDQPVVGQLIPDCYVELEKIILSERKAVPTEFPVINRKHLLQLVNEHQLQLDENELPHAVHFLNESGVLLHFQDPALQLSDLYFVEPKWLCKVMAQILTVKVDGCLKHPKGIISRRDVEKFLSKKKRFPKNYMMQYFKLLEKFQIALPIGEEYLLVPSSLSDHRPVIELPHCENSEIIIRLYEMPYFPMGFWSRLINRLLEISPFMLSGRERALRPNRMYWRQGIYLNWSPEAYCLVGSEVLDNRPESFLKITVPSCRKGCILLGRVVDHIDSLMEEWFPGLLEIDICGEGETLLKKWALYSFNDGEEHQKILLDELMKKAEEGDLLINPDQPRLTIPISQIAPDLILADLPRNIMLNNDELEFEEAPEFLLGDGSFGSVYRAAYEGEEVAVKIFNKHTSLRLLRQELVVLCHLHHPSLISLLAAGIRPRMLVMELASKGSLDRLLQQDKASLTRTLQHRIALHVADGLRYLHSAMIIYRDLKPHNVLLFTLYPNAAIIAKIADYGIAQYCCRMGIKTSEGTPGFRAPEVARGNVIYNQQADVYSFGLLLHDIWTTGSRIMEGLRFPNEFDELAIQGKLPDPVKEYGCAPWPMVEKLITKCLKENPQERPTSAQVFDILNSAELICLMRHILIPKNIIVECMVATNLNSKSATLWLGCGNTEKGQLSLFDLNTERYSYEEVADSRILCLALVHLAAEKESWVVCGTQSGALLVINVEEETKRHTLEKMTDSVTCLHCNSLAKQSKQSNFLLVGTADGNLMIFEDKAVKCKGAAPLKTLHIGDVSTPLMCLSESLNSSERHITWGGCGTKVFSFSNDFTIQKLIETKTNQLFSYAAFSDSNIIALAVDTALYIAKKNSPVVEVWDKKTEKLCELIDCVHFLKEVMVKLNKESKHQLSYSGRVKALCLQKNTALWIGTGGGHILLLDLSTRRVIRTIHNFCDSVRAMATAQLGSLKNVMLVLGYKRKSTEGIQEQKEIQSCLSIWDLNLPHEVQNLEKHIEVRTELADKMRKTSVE

effect of a mutation on the interaction	Variant
disrupting interaction	MVDREQLVQKARLAEQAERYDDMAAAMKNVTELNEPLSNEERNLLSVAYKNVVGARRSSWRVISSIEQKTSADGNEKKIEMVRAYREKIEKELEAVCQDVLSLLDNYLIKNCSETQYESKVFYLKMKGDYYRYLAEVATGEKRATVVESSEKAYSEAHEISKEHMQPTHPIRLGLALNYSDFYYEIQNAPEQACHLAKTAFDDAIAELDTLNEDSYKDSTLIMQLLRDNLTLWTSDQQDDDGGEGNN [V181D]
disrupting interaction	MVDREQLVQKARLAEQAERYDDMAAAMKNVTELNEPLSNEERNLLSVAYENVVGARRSSWRVISSIEQKTSADGNEKKIEMVRAYREKIEKELEAVCQDVLSLLDNYLIKNCSETQYESKVFYLKMKGDYYRYLAEVATGEKRATVVESSEKAYSEAHEISKEHMQPTHPIRLGLALNYSVFYYEIQNAPEQACHLAKTAFDDAIAELDTLNEDSYKDSTLIMQLLRDNLTLWTSDQQDDDGGEGNN [K50E]
